Activity (1-depletion score) data for 9 sequences are collected here from patent US20230383273.

Common to all, as to assay: cleavage_in_vitro
The subject of data set [1] is T1, OMNI-58 (Collinsella sp. AM13-34).
T1 sequence: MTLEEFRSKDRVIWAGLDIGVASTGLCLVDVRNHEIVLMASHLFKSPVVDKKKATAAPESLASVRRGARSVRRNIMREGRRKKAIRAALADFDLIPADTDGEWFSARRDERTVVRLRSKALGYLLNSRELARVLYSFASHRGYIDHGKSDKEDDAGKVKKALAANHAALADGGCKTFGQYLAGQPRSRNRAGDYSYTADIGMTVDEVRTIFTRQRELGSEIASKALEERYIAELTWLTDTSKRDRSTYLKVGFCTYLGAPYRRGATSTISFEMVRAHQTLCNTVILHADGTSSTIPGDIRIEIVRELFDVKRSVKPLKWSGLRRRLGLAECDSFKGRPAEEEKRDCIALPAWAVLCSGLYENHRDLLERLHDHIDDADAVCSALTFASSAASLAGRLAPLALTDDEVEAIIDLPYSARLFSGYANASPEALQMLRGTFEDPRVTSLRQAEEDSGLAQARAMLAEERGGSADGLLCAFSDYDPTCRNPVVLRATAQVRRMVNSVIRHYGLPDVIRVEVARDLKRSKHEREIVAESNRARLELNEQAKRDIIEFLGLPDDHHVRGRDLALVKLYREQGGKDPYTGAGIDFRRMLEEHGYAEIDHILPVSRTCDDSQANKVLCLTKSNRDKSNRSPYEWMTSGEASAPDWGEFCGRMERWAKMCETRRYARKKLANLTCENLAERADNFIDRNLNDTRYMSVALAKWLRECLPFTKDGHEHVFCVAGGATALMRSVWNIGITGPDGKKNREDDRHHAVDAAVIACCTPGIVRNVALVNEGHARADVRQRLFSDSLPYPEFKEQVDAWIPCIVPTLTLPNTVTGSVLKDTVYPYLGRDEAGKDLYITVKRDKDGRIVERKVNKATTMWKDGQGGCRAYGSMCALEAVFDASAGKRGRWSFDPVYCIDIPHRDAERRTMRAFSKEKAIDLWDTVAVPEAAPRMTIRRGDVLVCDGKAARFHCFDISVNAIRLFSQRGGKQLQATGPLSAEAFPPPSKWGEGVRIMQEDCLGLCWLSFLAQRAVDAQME
The settings on record: PAM NNNNCCA; TXTL.

Data set [2] has as its system T2, OMNI-56 (Chryseobacterium sp. G0240).
T2 sequence: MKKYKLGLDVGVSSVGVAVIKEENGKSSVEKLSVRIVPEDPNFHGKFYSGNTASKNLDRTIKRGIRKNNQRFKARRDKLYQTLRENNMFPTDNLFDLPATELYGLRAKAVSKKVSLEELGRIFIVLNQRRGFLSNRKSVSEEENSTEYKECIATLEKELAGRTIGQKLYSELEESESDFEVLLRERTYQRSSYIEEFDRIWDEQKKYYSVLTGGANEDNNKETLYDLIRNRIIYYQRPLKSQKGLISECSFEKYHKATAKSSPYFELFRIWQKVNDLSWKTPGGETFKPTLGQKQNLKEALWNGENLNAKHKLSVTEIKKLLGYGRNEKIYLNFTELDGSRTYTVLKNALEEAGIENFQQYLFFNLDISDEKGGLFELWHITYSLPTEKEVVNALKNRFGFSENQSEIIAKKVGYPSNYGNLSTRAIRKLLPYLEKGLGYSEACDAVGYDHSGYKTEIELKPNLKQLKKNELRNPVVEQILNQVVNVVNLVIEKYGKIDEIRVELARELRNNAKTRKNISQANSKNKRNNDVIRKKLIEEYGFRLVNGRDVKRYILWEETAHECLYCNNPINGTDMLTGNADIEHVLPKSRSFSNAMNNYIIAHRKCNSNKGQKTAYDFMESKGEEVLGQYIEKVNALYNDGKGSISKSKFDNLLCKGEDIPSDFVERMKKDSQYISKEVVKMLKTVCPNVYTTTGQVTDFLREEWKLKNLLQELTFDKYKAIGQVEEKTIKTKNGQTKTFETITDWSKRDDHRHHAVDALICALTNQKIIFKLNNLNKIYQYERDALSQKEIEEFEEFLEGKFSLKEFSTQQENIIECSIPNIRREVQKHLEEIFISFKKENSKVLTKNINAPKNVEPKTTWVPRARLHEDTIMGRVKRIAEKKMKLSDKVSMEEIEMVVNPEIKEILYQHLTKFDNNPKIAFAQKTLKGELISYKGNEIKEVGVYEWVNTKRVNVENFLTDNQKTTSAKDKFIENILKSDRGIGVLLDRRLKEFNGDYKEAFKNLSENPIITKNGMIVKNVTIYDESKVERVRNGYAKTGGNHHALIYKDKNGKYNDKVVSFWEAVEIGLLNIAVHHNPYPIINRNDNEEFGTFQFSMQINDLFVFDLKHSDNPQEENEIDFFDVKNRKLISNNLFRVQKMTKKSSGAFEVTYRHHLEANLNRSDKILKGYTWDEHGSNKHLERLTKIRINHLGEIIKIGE
The following applies: PAM NNRNGG; TXTL.

Data set [3] relates to T3, OMNI-65 (Faecalibacterium sp. An192).
T3 sequence: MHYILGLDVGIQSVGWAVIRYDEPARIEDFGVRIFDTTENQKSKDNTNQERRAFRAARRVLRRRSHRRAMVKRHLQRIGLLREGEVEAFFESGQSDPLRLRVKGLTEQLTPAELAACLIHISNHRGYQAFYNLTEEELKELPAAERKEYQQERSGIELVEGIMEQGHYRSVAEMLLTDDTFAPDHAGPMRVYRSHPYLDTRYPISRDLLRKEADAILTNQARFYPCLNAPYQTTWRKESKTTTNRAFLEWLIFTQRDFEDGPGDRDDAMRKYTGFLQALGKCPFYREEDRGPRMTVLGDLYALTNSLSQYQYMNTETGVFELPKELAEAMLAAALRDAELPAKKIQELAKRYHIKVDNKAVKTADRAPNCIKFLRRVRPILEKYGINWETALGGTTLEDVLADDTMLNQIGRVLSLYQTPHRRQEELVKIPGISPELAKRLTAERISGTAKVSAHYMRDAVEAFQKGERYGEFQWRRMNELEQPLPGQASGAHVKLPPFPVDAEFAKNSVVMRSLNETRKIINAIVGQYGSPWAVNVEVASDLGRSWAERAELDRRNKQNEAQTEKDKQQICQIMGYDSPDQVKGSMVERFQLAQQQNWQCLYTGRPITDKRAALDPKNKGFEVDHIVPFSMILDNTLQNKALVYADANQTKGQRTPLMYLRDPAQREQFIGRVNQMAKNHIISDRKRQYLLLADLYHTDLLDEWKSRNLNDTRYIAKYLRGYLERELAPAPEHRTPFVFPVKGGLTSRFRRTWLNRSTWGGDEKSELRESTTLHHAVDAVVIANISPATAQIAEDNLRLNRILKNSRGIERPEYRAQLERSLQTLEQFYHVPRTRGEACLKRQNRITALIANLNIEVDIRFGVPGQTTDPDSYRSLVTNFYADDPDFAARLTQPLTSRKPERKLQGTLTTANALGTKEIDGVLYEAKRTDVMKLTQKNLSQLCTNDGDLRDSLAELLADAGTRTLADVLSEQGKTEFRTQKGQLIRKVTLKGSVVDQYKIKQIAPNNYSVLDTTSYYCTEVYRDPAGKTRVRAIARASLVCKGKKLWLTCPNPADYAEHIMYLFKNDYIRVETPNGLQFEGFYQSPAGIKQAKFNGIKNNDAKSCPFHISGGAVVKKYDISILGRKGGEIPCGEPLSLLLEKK
The settings on record: PAM NNNVTA; TXTL.

As for “GGAAGAGCAGAGCCUUGGUCUCGCCCUAGCGCGGAAAAACGUUUGGGCAAGAGGGCCCGUUAAAGACGGGUCACUCGCGGAGUAUAUCCCGCAGGGUGCUAUUCGCACUCUGCGGGUGAUCUCCUAUUCCCUCCUUUUUU / GGAAGAGCAGAGCCTTGGTCTCNNNNNNNN / NNNNNNNNGAGACCAAGGCTCTGCTCTTCC”, in data set [1], the activity (1-depletion score) came to 0.86. Same read-out and setting: the figure for “GGAAGAGCAGAGCCUUGGUCUCGCCCUAGCGCGGAAAAACGUUUGGGCAAGAGGGCCCGUUAAAGACGGGUCACUCGCGGAGUAUAUCCCGCAGGGUGCUUUUCGCACUCUGCGGGUGAUCUCCUUUUCCCUCCUUUUUU / GGAAGAGCAGAGCCTTGGTCTCNNNNNNNN / NNNNNNNNGAGACCAAGGCTCTGCTCTTCC” is 0.88. “GGAAGAGCAGAGCCUUGGUCUCGCCCUAGCGCGUUGGAAAAGUAACGUUUGGGCAAGAGGGCCCGUUAAAGACGGGUCACUCGCGGAGUAUAUCCCGCAGGGUGCUUUUCGCACUCUGCGGGUGAUCUCCUUUUCCCUCCUUUUUU / GGAAGAGCAGAGCCTTGGTCTCNNNNNNNN / NNNNNNNNGAGACCAAGGCTCTGCTCTTCC” registered an activity (1-depletion score) in data set [1] of 0.93. The sequence “GGAAGAGCAGAGCCUUGGUCUCGUUGUGAAUUGCUUUCAAAAUUUAUUAUCUUCGAAAUUGGAUUAUAAAUUUUGAAAGCAAUUCACAAUAAGGAUUAUUCCGUUGUGAAAACAUUUAAGCCCCCUCGUCUUACCAUACGGGGGAUUUUUU / GGAAGAGCAGAGCCTTGGTCTCNNNNNNNN / NNNNNNNNGAGACCAAGGCTCTGCTCTTCC” gave an activity (1-depletion score) in data set [2] of 0.53. Same read-out and setting: the figure for “GGAAGAGCAGAGCCUUGGUCUCGUUGUGAAUUGCUUUCAUAAUUUAUUAUCUUCGAAAUUGGAUUAUAAAUUAUGAAAGCAAUUCACAAUAAGGAUUAUUCCGUUGUGAAAACAUUUAAGCCCCCUCGUCUUACCAUACGGGGGAUUUUUU / GGAAGAGCAGAGCCTTGGTCTCNNNNNNNN / NNNNNNNNGAGACCAAGGCTCTGCTCTTCC” is 0.69.

As for “GGAAGAGCAGAGCCUUGGUCUCGUUGUGAAUUGCUUUCGAAAGAAAGCAAUUCACAAUAAGGAUUAUUCCGUUGUGAAAACAUUUAAGCCCCCUCGUCUUACCAUACGGGGGAUUUUUU / GGAAGAGCAGAGCCTTGGTCTCNNNNNNNN / NNNNNNNNGAGACCAAGGCTCTGCTCTTCC”, the activity (1-depletion score) in data set [2] worked out at 0.69.

“GGAAGAGCAGAGCCUUGGUCUCGUUUUGGUUCUCUGAGAAACAGAAGUUCUAAGAUAAGGCUUUACGCCGCAGGGUAUGGUGGUAUCCCAAAUAUUCCACCAUUUGAUUGUAUCUGAAAGCGUCCGGUUCGGGCGCUUUUU / GGAAGAGCAGAGCCTTGGTCTCNNNNNNNN / NNNNNNNNGAGACCAAGGCTCTGCTCTTCC” returned an activity (1-depletion score) in data set [3] of 0.94. Still for that read-out and setting: as for “GGAAGAGCAGAGCCUUGGUCUCGUUUUGGUUCUCUGAUGGGAAACAUCAGAAGUUCUAAGAUAAGGCUUUACGCCGCAGGGUAUGGUGGUAUCCCAAAUAUUCCACCAUUUGAUUGUAUCUGAAAGCGUCCGGUUCGGGCGCUUUUU / GGAAGAGCAGAGCCTTGGTCTCNNNNNNNN / NNNNNNNNGAGACCAAGGCTCTGCTCTTCC”, the figure is 0.94. Regarding “GGAAGAGCAGAGCCUUGGUCUCGUUUUGGUUCUUCUGGAAACAGAAGUUCUAAGAUAAGGCUUUACGCCGCAGGGUAUGGUGGUAUCCCAAAUAUUCCACCAUUUGAUUGUAUCUGAAAGCGUCCGGUUCGGGCGCUUUUU / GGAAGAGCAGAGCCTTGGTCTCNNNNNNNN / NNNNNNNNGAGACCAAGGCTCTGCTCTTCC”, the activity (1-depletion score) in data set [3] was found to be 0.93.
